Consider 27 molecules from US20210355194A1 (TWIST BIOSCIENCE, published 2021).

Positions count from the first letter of the chain named. Read-outs that look alike come from different tables or passages of the source.

Test [1] has as its target SARS-CoV-2 membrane protein on expressing cells (SARS-CoV-2, UniProt P0DTC5 1-222).
The target in test [2] is T1, ACE2 (human, UniProt Q9BYF1 18-740).
The target in test [3] is T1, ACE2. The source holds these as a separate data set.
Test [4] addresses T2, Acro SARS-CoV-2 (COVID-19) S1 protein (SARS-CoV-2, UniProt P0DTC2 16-685).
T2 construct: also called SARS-CoV-2 S1
The test can be described thus: SPR. (Surface plasmon resonance follows binding to a sensor surface in real time, without labels.)

T1 sequence (Q9BYF1 18-740 limits assumed): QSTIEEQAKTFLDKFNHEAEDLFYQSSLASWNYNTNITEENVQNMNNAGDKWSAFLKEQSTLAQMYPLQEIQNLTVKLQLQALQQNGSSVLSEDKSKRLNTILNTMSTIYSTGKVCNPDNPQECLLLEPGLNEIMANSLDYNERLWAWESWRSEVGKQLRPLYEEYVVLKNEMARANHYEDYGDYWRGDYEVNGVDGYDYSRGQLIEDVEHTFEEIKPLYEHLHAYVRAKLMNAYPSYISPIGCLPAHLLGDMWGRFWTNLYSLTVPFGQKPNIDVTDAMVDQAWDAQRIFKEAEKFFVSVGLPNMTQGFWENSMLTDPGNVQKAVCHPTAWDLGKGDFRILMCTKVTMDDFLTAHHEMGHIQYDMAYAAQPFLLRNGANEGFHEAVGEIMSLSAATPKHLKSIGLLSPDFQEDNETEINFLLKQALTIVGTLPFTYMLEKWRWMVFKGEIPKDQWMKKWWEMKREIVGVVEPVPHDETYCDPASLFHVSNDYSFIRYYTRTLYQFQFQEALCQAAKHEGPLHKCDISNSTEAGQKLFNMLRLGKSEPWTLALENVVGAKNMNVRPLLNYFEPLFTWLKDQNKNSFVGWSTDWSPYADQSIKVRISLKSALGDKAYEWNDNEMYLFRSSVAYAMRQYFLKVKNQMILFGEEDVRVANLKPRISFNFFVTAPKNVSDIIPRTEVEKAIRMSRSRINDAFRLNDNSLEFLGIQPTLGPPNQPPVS

B1: 9-1 (VHH)
VHH: EVQLVESGGGLVQPGGSLRLSCAASGRTFSRLAMGWFRQAPGKEREFVAAISRSGRSTSYADSVKGRFTISADNSKNTAYLQMNSLKPEDTAVYYCAARRSQILFTSRTDYEWGQGTLVTVSS
In the case of B1, the “MFI Ratio” value in test [1] stood at 8.19.

B2: ACE2 variant antibody 4-56 (VHH)
VHH: EVQLVESGGGLVQPGGSLRLSCAASGFSLDYYGMGWFRQAPGKERESVAAISWNGDFTAYADSVKGRFTISADNSKNTAYLQMNSLKPEDTAVYYCAKRANPTGAYFDYWGQGTLVTVSS
In test [2], B2 registered a Kd of 18.2 nM, a koff of 0.00237 s⁻¹ and a kon of 130000 M⁻¹ s⁻¹. In test [3], this molecule displayed a koff of 0.00237 s⁻¹ and a kon of 130000 M⁻¹ s⁻¹.

B3: variant 6-46 (Fc fusion)
VHH: EVQLVESGGGLVQPGGSLRLSCAASGLTFSAMGWFRQAPGKEREFVALIRRDGSTIYADSVKGRFTISADNSKNTAYLQMNSLKPEDTAVYYCAALGILFGYDAFDIWGQGTLVTVSS
In test [4], B3 registered a Kd of 18.1 nM. In other words, the double-digit nanomolar range.

B4: variant 6-9 (Fc fusion)
VHH: EVQLVESGGGLVQPGGSLRLSCAASGFTFDYYAMGWFRQAPGKEREFVSAIDSEGRTSYADSVKGRFTISADNSKNTAYLQMNSLKPEDTAVYYCARWGPFDIWGQGTLVTVSS
As for B4, in test [4], the Kd is 18.5 nM.

B5: 10-18 (VHH)
VHH: EVQLVESGGGLVQPGGSLRLSCAASGRMYNSYSMGWFRQAPGKEREFVARISPGGTFYADSVKGRFTISADNSKNTAYLQMNSLKPEDTAVYYCTTSARSGWFWRYFDSWGQGTLVTVSS
On to B5, for which, in test [1], the “MFI Ratio” value stood at 8.06.

B6: ACE2 variant antibody 4-78 (VHH)
VHH: EVQLVESGGGLVQPGGSLRLSCAASGRTFSDDTMGWFRQAPGKEREFVAGMTWSGSSTFYADSVKGRFTISADNSKNTAYLQMNSLKPEDTAVYYCATDPPLFWGQGTLVTVSS
In test [2], B6 had a Kd of 10.7 nM, a koff of 0.00263 s⁻¹ and a kon of 247000 M⁻¹ s⁻¹. In test [3], this molecule returned a koff of 0.00263 s⁻¹ and a kon of 247000 M⁻¹ s⁻¹.

B7: ACE2 variant antibody 4-82 (VHH)
VHH: B6 VHH with S30G, D32Y, T33A, G50A, M51I, T52N, S56G, S57Y, F59R
On to B7, for which, in test [2], binding was put at a Kd of 11.1 nM, the koff is 0.00333 s⁻¹ and the kon came to 301000 M⁻¹ s⁻¹. In test [3], this molecule registered an off-rate constant (koff) of 0.00333 s⁻¹ and a kon of 301000 M⁻¹ s⁻¹.

B8: variant 6-63 (Fc fusion)
VHH: EVQLVESGGGLVQPGGSLRLSCAASGQTFNMGWFRQAPGKEREFVAAIGSGGSTSYADSVKGRFTISADNSKNTAYLQMNSLKPEDTAVYYCWRLGNDYFDYWGQGTLVTVSS
notes: also called VHH nanobody 6-63
Turning to B8, the Kd in test [4] is 21.8 nM.

B9: ACE2 variant antibody 3-8 (antibody, V domains shown)
VH: EVQLLESGGGLVQPGGSLRLSCAASGFTFRSHAMSWVRQAPGKGLEWVSSISGGGASTYYADSVKGRFTISRDNSKNTLYLQMNSLRAEDTAVYYCARVKYLTTSSGWPRPYFDNWGQGTLVTVSS
VL: DIQMTQSPSSLSASVGDRVTITCRASQSIGKYLNWYQQKPGKAPKLLIYASSTLQRGVPSRFSGSGSGTDFTLTISSLQPEDFATYYCQQSLSTPFTFGQGTKVEIK
In test [2], B9 registered a Kd of 44.6 nM, a koff of 0.00509 s⁻¹ and a kon of 114000 M⁻¹ s⁻¹. In test [3], this molecule yielded a koff of 0.00509 s⁻¹ and a kon of 114000 M⁻¹ s⁻¹.

B10: ACE2 variant antibody 3-13 (antibody, V domains shown)
VH: EVQLLESGGGLVQPGGSLRLSCAASGFTITNYAMSWVRQAPGKGLEWVSGISGSGAGTYYADSVKGRFTISRDNSKNTLYLQMNSLRAEDTAVYYCARHTWWKGAGFFDHWGQGTLVTVSS
VL: B9 VL with K31R, S51A, T53S, Q55K, R56S, L92Y, T94L, F96R
In test [2], B10 displayed a Kd of 126 nM, a koff of 0.0102 s⁻¹ and a kon of 80900 M⁻¹ s⁻¹. In test [3], this molecule registered a koff of 0.0102 s⁻¹ and an association rate constant (kon) of 80900 M⁻¹ s⁻¹.

B11: ACE2 variant antibody 3-9 (antibody, V domains shown)
VH: B9 VH with H32Y
VL: B9 VL with L92F
In test [2], B11 gave a Kd of 68 nM, a koff of 0.00569 s⁻¹ and a kon of 83600 M⁻¹ s⁻¹. In test [3], this molecule showed a koff of 0.00569 s⁻¹ and a kon of 83600 M⁻¹ s⁻¹.

B12: ACE2 variant antibody 4-52 (VHH)
VHH: EVQLVESGGGLVQPGGSLRLSCAASGRSFSNSVMGWFRQAPGKEREFVARITWNGGSTYYADSVKGRFTISADNSKNTAYLQMNSLKPEDTAVYYCATTENPNPRWGQGTLVTVSS
Take B12: in test [2], the Kd was 11.8 nM, the koff amounted to 0.00149 s⁻¹ and the kon came to 126000 M⁻¹ s⁻¹. In test [3], this molecule yielded a koff of 0.00149 s⁻¹ and a kon of 126000 M⁻¹ s⁻¹.

B13: ACE2 variant antibody 4-39 (VHH)
VHH: B12 VHH with S28T, S32A, V33A, T52L, N54T, G56A, T58R, Y59N
In the case of B13, in test [2], the Kd was 101 nM, the koff turned out to be 0.0137 s⁻¹ and the kon stood at 136000 M⁻¹ s⁻¹. Besides, in test [3], the koff stood at 0.0137 s⁻¹ and the kon turned out to be 136000 M⁻¹ s⁻¹.

B14: variant 6-3 (Fc fusion)
VHH: EVQLVESGGGLVQPGGSLRLSCAASGFTFSPSWMGWFRQAPGKEREFVATINEYGGRNYADSVKGRFTISADNSKNTAYLQMNSLKPEDTAVYYCARVDRDFDYWGQGTLVTVSS
The molecule B14 returned a Kd in test [4] of 12.4 nM.

B15: variant 6-37 (Fc fusion)
VHH: EVQLVESGGGLVQPGGSLRLSCAASGHTFSTSWMGWFRQAPGKEREFVATINSLGGTNYADSVKGRFTISADNSKNTAYLQMNSLKPEDTAVYYCARVSSGDYGMDVWGQGTLVTVSS
B15 yielded a Kd in test [4] of 22.5 nM.

B16: variant 6-5 (Fc fusion)
VHH: EVQLVESGGGLVQPGGSLRLSCAASGRTFTMGWFRQAPGKEREFVASTNSAGSTNYADSVNGRFTISADNSKNTAYLQMNSLKPEDTAVYYCTTVDQYFDYWGQGTLVTVSS
The molecule B16 registered a Kd in test [4] of 24.9 nM.

B17: 10-45 (VHH)
VHH: EVQLVESGGGLVQPGGSLRLSCAASGRTFSWYPMGWFRQAPGKEREFVASISWGGARTYYADSVKGRFTISADNSKNTAYLQMNSLKPEDTAVYYCARSTGPRGSGRYRAHWFDSWGQGTLVTVSS
Take B17: the “MFI Ratio” value in test [1] is 6.69.

B18: variant 6-43 (Fc fusion)
VHH: EVQLVESGGGLVQPGGSLRLSCAASGRTFSSYAMMGWFRQAPGKEREFVASVNWDASQINYADSVKGRFTISADNSKNTAYLQMNSLKPEDTAVYYCTTLGAVYFDSSGYHDYFDYWGQGTLVTVSS
B18 returned a Kd in test [4] of 17.9 nM.

B19: 10-13 (VHH)
VHH: EVQLVESGGGLVQPGGSLRLSCAASGGLTFSSNTMGWFRQAPGKEREFVASISSSGRTSYADSVKGRFTISADNSKNTAYLQMNSLKPEDTAVYYCARRVRRLWFRSYFDLWGQGTLVTVSS
For the molecule B19, the “MFI Ratio” value in test [1] was 8.83.

B20: variant 6-52 (Fc fusion)
VHH: EVQLVESGGGLVQPGGSLRLSCAASGDTYGSYWMGWFRQAPGKEREVVAAITSGGSTVYADSVKGRFTISADNSKNTAYLQMNSLKPEDTAVYYCARVDSRFDYWGQGTLVTVSS
For B20, in test [4], binding was put at a Kd of 31.2 nM.

B21: variant 6-103 (Fc fusion)
VHH: EVQLVESGGGLVQPGGSLRLSCAASGRTSSPIAMGWFRQAPGKEREPVAVRWSDDYTYYADSVKGRFTISADNSKNTAYLQMNSLKPEDTAVYYCAKKLGGYYAFDIWGQGTLVTVSS
Turning to B21, binding in test [4] was characterised by a dissociation constant (Kd) of 23.6 nM.

B22: 10-26 (VHH)
VHH: EVQLVESGGGLVQPGGSLRLSCAASGRTFSGFTMSSTWMGWFRQAPGKEREFVAGIITNGSTNYADSVKGRFTISADNSKNTAYLQMNSLKPEDTAVYYCARRVAYSSFWSGLRKHMDVWGQGTLVTVSS
In the case of B22, in test [1], the “MFI Ratio” value was 5.2.

B23: variant 6-2 (Fc fusion)
VHH: EVQLVESGGGLVQPGGSLRLSCAASGFTMSSSWMGWFRQAPGKEREFVTVISGVGTSYADSVKGRFTISADNSKNTAYLQMNSLKPEDTAVYYCARGPDSSGYGFDYWGQGTLVTVSS
In test [4], B23 displayed a Kd of 29.9 nM.

B24: ACE2 variant antibody 4-25 (VHH)
VHH: EVQLVESGGGLVQPGGSLRLSCAASGGTFSRYAMGWFRQAPGKEREWVSAVDSGGSTYYADSVKGRFTISADNSKNTAYLQMNSLKPEDTAVYYCAASPSLRSAWQWGQGTLVTVSS
Take B24: in test [2], the affinity, expressed as Kd, was 38.5 nM; the koff was 0.00303 s⁻¹; the kon is 78700 M⁻¹ s⁻¹. In test [3], this molecule yielded a koff of 0.00303 s⁻¹ and a kon of 78700 M⁻¹ s⁻¹.

B25: ACE2 variant antibody 3-12 (antibody, V domains shown)
VH: EVQLLESGGGLVQPGGSLRLSCAASGFTFRSHAMNWVRQAPGKGLEWVSAISGSGGSTNYADSVKGRFTISRDNSKNTLYLQMNSLRAEDTAVYYCARGLKFLEWLPSAFDIWGQGTLVTVSS
VL: DIQMTQSPSSLSASVGDRVTITCRTSQSINTYLNWYQQKPGKAPKLLIYGASNVQSGVPSRFSGSGSGTDFTLTISSLQPEDFATYYCQQSYRIPRTFGQGTKVEIK
Regarding B25, in test [2], the Kd is 420 nM, the koff was found to be 0.00649 s⁻¹ and the kon turned out to be 15500 M⁻¹ s⁻¹. In test [3], this molecule displayed a koff of 0.00649 s⁻¹ and a kon of 15500 M⁻¹ s⁻¹.

B26: variant 6-81 (Fc fusion)
VHH: EVQLVESGGGLVQPGGSLRLSCAASGFIGNYHAMGWFRQAPGKEREFVAAVTWSGGTTNYADSVKGRFTISADNSKNTAYLQMNSLKPEDTAVYYCAREGYYYDSSGYPYYFDYWGQGTLVTVSS
In test [4], B26 returned a Kd of 12.9 nM. In other words, the double-digit nanomolar range.

B27: ACE2 variant antibody 4-57 (VHH)
VHH: EVQLVESGGGLVQPGGSLRLSCAASGLTFRNYAMGWFRQAPGKEREFVAAIGSGGYTDYADSVKGRFTISADNSKNTAYLQMNSLKPEDTAVYYCAVKPGWVARDPSQYNWGQGTLVTVSS
In test [2], B27 came in with a Kd of 7.8 nM, a koff of 0.00239 s⁻¹ and a kon of 307000 M⁻¹ s⁻¹. In test [3], this molecule returned a koff of 0.00239 s⁻¹ and a kon of 307000 M⁻¹ s⁻¹.

Broadly, the Kd is the concentration at which binding is half-saturated. In general, koff refers to the rate constant with which the complex falls apart. Higher therefore signals a short-lived complex. By kon is commonly meant the second-order rate constant of association.
